Data taken from patent US6043072A, “Nucleic acids encoding Taxus geranylgeranyl diphosphate synthase, and methods of use” (Washington State University Research Foundation, priority 1998, dated 2000).

Experiments:
[1] = Prenyltransferase assay of extracts of yeast expressing the GGPP synthase constructs, with product analysis by radio-TLC; type: biochemical, Taxus canadensis
Procedure: The standard assay for prenyltransferase activities was performed with 21 mg protein in a total volume of 100 ml of the extraction/assay buffer disclosed in Example 3. […] The reaction was quenched by the addition of 300 mil of methanol:conc. HCl (4:1, v/v), and the allylic diphosphate products were solvolyzed (50, 51) upon further incubation at 42° C. for 20 min. The resulting solvolysis products were extracted twice with 1 ml pentane, and were either analyzed by liquid scintillation counting (in toluene:ethanol (7:3, v/v) containing 0.4% Omnifluor (DuPont NEN); ^14 C counting efficiency=96.0%) or concentrated on ice under a gentle stream of Ar to […] for further analysis.
For radio-TLC analysis, samples were mixed with 10 mg each of geranylgeraniol (all trans), geranyllinalool (mixed geometric isomers), farnesol and geraniol and spotted on Whatman MKC 18F reversed phase plates that were developed with acetonitrile:acetone:water (15:4:1, v/v/v) and visualized with I2 vapor. Bands corresponding to the standards were scraped into scintillation vials for counting. For radio-GC analysis, the above pentane extract was diluted with 200 ml of an 8% ethereal solution of the internal standards before concentration on ice. Product identity was confirmed by radio-GC (Satterwhite, D. M. and Croteau, R. (1988) J. Chromatogr., 452:61-73) coincidence with the authentic standard on a 12 ft x 0.125 in. polydimethylsiloxane column (15% SE-30 on 80/100-mesh Chromasorb WHP; (Alltech, Inc., Nicholasville, Ky.), with He as carrier and temperature programming from 150° C. (1 min hold) to 240° C. (20 min hold) at 8° C./min.

[2] = tested on: ANY119, an S. cerevisiae mutant; assay: Complementation assay in yeast bet2-1 mutant; type: cell-based; conditions: 37° C.; SGI (3 d) and N3 (5 d)
Procedure: The pYeDP60 constructs were transformed into the S. cerevisiae mutant ANY119 using the lithium acetate procedure (Treco, D. (1989) in Current Protocols in Molecular Biology (Ausubel, F. M., Brent, R., Kingston, R. E., Moore, D. D., Seidman, J. G., Smith, J. A. and White, T. J., Eds.), pp. 13.7.1-13.7.2, John Wiley and Sons, New York), and the transformed yeast were then plated on a synthetic medium containing glucose as the sole carbon source (but lacking uracil) and grown for 4 d at 25° C. Isolated colonies, corresponding to each construct, were then replica streaked onto SGI, N3 and SLI media and grown for 3, 5 or 7 d, respectively, at 25° C or 37° C.
SGI and SLI synthetic media contain, respectively, 20 g/liter glucose (G) or 20 g/liter galactose (L) in 1 g/liter bactocasamino acids (Difco), 6.7 g/liter yeast nitrogen base without amino acid (Difco), and 40 mg/liter DL-tryptophan.
The three pYeDP60/T. canadensis GGPP synthase constructs were introduced into and expressed in ANY119, an S. cerevisiae mutant that is defective for the β-subunit of type II geranylgeranyltransferase. […]

yeast strain (INVSc1) = assay: Growth/toxicity of constructs in yeast under galactose induction; type: cell-based, S. cerevisiae; conditions: for growth of INVSc1 transformants on SLI medium: 30° C., 3 d, galactose (induced); for toxicity of the expressed recombinant GGPP synthase gene to host cells: inducing conditions, galactose as carbon source
Procedure: To test the expression of GGPP synthase on galactose as carbon source, each construct was transformed into a yeast strain (INVSc1) that metabolizes this sugar efficiently.
(§1) The toxicity of the constitutively expressed, recombinant GGPP synthase gene in yeast and in E. coli parallels the in vitro activity of the enzyme expressed in the truncation series. […] This toxicity is not observed when the corresponding transformed yeast are grown on glucose or glycerol (uninduced condition), but only when the gene is actively expressed by growth under inducing conditions with galactose as the carbon source. The overexpression of this gene to produce a functional GGPP synthase probably interferes with metabolism by depleting intracellular pools of FPP, via diversion to GGPP, and thus limiting sterol biosynthesis. […] The vector used in these E. coli transformation experiments was pYPGE15, the plasmid derived from λPG15.

E. coli = assay: Expression under a strong constitutive promoter in E. coli (vector pYPGE15); type: cell-based
Procedure: as §1

Row | Molecule | activity relative to the truncated form expressed from Tr^295 ([1]; compared on a protein basis, yeast extracts) [%] | growth at restrictive temperature (rescue of bet2-1 mutant) [2] | growth of INVSc1 transformants on SLI medium (yeast strain (INVSc1)) | toxicity of the expressed recombinant GGPP synthase gene to host cells (yeast strain (INVSc1)) | growth of E. coli expressing the clone (E. coli) | total radioactivity of solvolysis products coinciding with geranylgeraniol and geranyllinalool standards ([1]; reversed phase TLC, [4-^14 C]IPP plus FPP as substrates) [%] | prenyltransferase activity of enzyme preparation ([1]; yeast extracts, [4-^14 C]IPP and FPP)
1 | full-length: full-length T. canadensis GGPP synthase preprotein (SEQ ID NO:2) encoded by SEQ ID NO:1 (protein) MAYTAMAAGTQSLQLRTVASYQECNSMRSCFKLTPFKSFHGVNFNVPSLGAANCEIMGHLKLGSLPYKQCSVSSKSTKTMAQLVDLAETEKAEGKDIEFDFNEYMKSKAVAVDAALDKAIPLEYPEKIHESMRYSLLAGGKRVRPALCIAACELVGGSQDLAMPTACAMEMIHTMSLIHDDLPCMDNDDFRRGKPTNHKVFGEDTAVLAGDALLSFAFEHIAVATSKTVPSDRTLRVISELGKTIGSQGLVGGQVVDITSEGDANVDLKTLEWIHIHKTAVLLECSVVSGGILGGATEDEIARIRRYARCVGLLFQVVDDILDVTKSSEELGKTAGKDLLTDKATYPKLMGLEKAKEFAAELATRAKEELSSFDQIKAAPLLGLADYIAFRQN | 12 | showed growth | scanty growth | noticeable reduction in growth | the cells will not grow | – | –
2 | Tr^295: 5'-truncated T. canadensis GGPP synthase of SEQ ID NO:2 beginning at nucleotide 295 (F^99), lacking the transit peptide (protein) FDFNEYMKSKAVAVDAALDKAIPLEYPEKIHESMRYSLLAGGKRVRPALCIAACELVGGSQDLAMPTACAMEMIHTMSLIHDDLPCMDNDDFRRGKPTNHKVFGEDTAVLAGDALLSFAFEHIAVATSKTVPSDRTLRVISELGKTIGSQGLVGGQVVDITSEGDANVDLKTLEWIHIHKTAVLLECSVVSGGILGGATEDEIARIRRYARCVGLLFQVVDDILDVTKSSEELGKTAGKDLLTDKATYPKLMGLEKAKEFAAELATRAKEELSSFDQIKAAPLLGLADYIAFRQN | – | showed growth | did not grow at all | extremely toxic | the cells will not grow | 97 | highly active
